In test [1] the target is C4b (surface-bound) (Homo sapiens) (UniProt P0C0L4). The conditions noted are these: cited from earlier work.
In test [2] the target is C4b (soluble) (Homo sapiens) (UniProt P0C0L4). The conditions noted are these: cited from earlier work.
Test [3] addresses C3bC4b complex (on EMan, average) C3b+C4b (Homo sapiens, UniProt P01024). Briefly: 125I-C4BP equilibrium binding.
In test [4] the target is C3bC4b complex (on zymosan, 54,000 C4b/Zym) C3b+C4b (Homo sapiens, UniProt P01024). In words: 125I-C4BP equilibrium binding.
Sequence of C3bC4b complex (on zymosan, 54,000 C4b/Zym) C3b+C4b (P01024 23-1663, one chain of several): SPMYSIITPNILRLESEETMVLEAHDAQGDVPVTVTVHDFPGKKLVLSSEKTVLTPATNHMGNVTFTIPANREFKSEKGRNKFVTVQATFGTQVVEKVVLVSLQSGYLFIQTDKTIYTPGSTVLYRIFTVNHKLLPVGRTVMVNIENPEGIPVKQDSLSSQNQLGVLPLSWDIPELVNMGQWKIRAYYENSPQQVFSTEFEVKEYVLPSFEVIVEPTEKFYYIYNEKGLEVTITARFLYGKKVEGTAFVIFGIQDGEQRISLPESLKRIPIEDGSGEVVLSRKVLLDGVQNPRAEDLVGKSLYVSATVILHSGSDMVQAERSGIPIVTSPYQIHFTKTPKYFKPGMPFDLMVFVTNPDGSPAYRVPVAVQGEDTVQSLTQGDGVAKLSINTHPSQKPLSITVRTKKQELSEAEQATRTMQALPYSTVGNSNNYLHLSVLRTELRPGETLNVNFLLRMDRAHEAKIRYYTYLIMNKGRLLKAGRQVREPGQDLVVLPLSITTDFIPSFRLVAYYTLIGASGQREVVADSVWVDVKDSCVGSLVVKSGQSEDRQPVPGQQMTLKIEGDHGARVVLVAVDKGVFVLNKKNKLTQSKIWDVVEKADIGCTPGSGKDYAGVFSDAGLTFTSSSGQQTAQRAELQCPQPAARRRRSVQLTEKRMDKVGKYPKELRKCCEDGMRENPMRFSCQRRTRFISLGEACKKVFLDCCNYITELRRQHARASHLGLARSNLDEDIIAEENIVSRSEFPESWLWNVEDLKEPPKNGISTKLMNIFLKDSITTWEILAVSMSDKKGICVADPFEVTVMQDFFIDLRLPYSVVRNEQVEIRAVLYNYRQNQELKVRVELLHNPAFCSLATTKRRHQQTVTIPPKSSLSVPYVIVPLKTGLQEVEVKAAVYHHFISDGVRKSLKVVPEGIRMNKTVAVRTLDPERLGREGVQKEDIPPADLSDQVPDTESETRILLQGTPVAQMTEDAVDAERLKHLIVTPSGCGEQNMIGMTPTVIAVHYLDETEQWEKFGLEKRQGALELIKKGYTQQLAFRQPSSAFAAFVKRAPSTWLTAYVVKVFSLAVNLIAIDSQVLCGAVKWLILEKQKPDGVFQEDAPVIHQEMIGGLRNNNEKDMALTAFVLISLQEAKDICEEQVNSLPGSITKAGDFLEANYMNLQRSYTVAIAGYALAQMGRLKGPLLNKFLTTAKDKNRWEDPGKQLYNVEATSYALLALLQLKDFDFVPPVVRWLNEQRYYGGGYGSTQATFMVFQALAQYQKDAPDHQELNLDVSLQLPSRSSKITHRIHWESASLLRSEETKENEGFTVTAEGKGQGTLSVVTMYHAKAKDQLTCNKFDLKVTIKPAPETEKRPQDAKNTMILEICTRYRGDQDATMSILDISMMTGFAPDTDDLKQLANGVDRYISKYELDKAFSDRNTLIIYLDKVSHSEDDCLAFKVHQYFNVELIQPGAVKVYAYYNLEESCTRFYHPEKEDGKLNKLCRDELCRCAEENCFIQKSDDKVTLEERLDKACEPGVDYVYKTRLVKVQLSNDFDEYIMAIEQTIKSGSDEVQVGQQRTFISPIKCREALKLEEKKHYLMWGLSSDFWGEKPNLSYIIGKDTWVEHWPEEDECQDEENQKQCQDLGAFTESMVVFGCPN
The target of test [5] is C3bC4b complex (on zymosan, average) C3b+C4b (Homo sapiens, UniProt P01024). Briefly: 125I-C4BP equilibrium binding.
Sequence of C3bC4b complex (on zymosan, average) C3b+C4b (P01024 23-1663, one chain of several): as above
Test [6] deals with T1, C4b (on zymosan, average) C4b (Homo sapiens, UniProt P0C0L5).
T1 chain 1: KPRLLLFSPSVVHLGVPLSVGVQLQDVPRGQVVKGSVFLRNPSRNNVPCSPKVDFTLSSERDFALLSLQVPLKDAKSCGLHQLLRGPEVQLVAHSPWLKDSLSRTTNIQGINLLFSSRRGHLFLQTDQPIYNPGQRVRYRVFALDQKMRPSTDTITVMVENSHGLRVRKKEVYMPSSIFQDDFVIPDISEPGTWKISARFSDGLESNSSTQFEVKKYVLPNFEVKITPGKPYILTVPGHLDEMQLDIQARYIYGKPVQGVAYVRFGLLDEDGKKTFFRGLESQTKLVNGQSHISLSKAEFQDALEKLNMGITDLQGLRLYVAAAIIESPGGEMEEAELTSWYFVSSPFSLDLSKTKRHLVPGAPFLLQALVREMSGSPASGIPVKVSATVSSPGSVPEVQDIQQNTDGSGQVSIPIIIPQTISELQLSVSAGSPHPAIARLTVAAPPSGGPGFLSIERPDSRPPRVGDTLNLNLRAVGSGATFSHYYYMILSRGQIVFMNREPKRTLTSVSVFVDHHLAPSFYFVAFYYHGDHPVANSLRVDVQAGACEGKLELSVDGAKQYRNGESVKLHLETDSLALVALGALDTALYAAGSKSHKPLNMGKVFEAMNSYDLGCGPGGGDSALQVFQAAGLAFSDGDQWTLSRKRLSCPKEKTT
T1 chain 2: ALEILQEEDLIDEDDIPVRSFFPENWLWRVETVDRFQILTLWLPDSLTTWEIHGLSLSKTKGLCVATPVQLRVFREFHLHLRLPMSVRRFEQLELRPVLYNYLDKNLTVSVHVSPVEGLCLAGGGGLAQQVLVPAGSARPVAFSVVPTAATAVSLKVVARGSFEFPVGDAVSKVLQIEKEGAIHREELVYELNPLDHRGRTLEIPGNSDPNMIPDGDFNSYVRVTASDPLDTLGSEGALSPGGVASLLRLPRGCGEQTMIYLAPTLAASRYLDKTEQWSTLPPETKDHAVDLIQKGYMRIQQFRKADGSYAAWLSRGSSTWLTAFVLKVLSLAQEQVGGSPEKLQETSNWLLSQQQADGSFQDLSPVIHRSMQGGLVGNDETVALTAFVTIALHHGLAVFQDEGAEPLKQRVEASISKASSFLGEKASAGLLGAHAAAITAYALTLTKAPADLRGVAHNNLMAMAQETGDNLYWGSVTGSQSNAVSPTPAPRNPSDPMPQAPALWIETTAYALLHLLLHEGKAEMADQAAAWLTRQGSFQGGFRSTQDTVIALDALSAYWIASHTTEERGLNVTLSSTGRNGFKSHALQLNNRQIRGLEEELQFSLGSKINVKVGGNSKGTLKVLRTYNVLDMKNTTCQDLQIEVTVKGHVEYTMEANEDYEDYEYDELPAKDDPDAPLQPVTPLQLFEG
T1 chain 3: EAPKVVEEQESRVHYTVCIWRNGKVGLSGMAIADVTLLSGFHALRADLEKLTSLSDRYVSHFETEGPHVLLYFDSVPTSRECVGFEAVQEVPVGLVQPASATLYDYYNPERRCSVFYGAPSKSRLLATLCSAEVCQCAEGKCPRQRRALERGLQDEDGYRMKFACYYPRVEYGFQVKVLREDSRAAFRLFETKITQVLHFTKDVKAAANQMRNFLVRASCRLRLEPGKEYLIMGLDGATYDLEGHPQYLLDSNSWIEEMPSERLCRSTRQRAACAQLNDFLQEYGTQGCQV
Briefly: 125I-C4BP equilibrium binding.

Values joined by “and” are separate entries in the source; they are usually repeats but may differ in a detail not shown here. Identical values can stand only once.

Sequence of C3bC4b complex (on EMan, average) C3b+C4b (P01024 23-1663, one chain of several): as the sequence (P01024 23-1663, one chain of several) above

As to C4BP (from UniProt P04003), the Kd (commonly the concentration at which binding is half-saturated) is 5 nM and 2.2 nM in test [1]; 80 nM in test [2].

B1: C4b-binding protein (C4BP) (protein)
chain 1: NCGPPPTLSFAAPMDITLTETRFKTGTTLKYTCLPGYVRSHSTQTLTCNSDGEWVYNTFCIYKRCRHPGELRNGQVEIKTDLSFGSQIEFSCSEGFFLIGSTTSRCEVQDRGVGWSHPLPQCEIVKCKPPPDIRNGRHSGEENFYAYGFSVTYSCDPRFSLLGHASISCTVENETIGVWRPSPPTCEKITCRKPDVSHGEMVSGFGPIYNYKDTIVFKCQKGFVLRGSSVIHCDADSKWNPSPPACEPNSCINLPDIPHASWETYPRPTKEDVYVVGTVLRYRCHPGYKPTTDEPTTVICQKNLRWTPYQGCEALCCPEPKLNNGEITQHRKSRPANHCVYFYGDEISFSCHETSRFSAICQGDGTWSPRTPSCGDICNFPPKIAHGHYKQSSSYSFFKEEIIYECDKGYILVGQAKLSCSYSHWSAPAPQCKALCRKPELVNGRLSVDKDQYVEPENVTIQCDSGYGVVGPQSITCSGNRTWYPEVPKCEWETPEGCEQVLTGKRLMQCLPNPEDVKMALEVYKLSLEIEQLELQRDSARQSTLDKEL
chain 2: SDAEHCPELPPVDNSIFVAKEVEGQILGTYVCIKGYHLVGKKTLFCNASKEWDNTTTECRLGHCPDPVLVNGEFSSSGPVNVSDKITFMCNDHYILKGSNRSQCLEDHTWAPPFPICKSRDCDPPGNPVHGYFEGNNFTLGSTISYYCEDRYYLVGVQEQQCVDGEWSSALPVCKLIQEAPKPECEKALLAFQESKNLCEAMENFMQQLKESGMTMEELKYSLELKKAELKAKLL
As for B1, the Kd in test [3] is 2.1 nM; in test [4] it was 0.62 nM; in test [5] it was 0.9 nM; in test [6], 0.95 nM.
